According to patent US20090208473A1 (RUTGERS THE STATE UNIVERSITY OF NEW JERSEY, published 2009):

B1: GFP-MG53 C242A mutant (other, mouse, UniProt Q1XH17 1-477, looked up)
chain: MSAAPGLLRQELSCPLCLQLFDAPVTAECGHSFCRACLIRVAGEPAADGTVACPCCQAPTRPQALSTNLQLSRLVEGLAQVPQGHCEEHLDPLSIYCEQDRTLVCGVCASLGSHRGHRLLPAAEAQARLKTQLPQQKMQLQEACMRKEKTVAVLEHQLVEVEETVRQFRGAVGEQLGKMRMFLAALESSLDREAERVRGDAGVALRRELSSLNSYLEQLRQMEKVLEEVADKPQTEFLMKFALVTSRLQKILSESPPPARLDIQLPVISDDFKFQVWKKMFRALMPALEELTFDPSSAHPSLVVSSSGRRVECSDQKAPPAGEDTRQFDKAVAVVAQQLLSQGEHYWEVEVGDKPRWALGVMAADASRRGRLHAVPSQGLWLLGLRDGKILEAHVEAKEPRALRTPERPPARIGLYLSFADGVLAFYDASNPDVLTPIFSFHERLPGPVYPIFDVCWHDKGKNAQPLLLVGPEQEQA
notes: the plasmid methods describe mouse MG53 cDNA; also called GFP-C242A; not shown: GFP at the N-terminus

What was measured:
[1] = test system: Ubc4
[2] = test system: UbCH5
[3] = molecular target: the molecule itself; test: oligomerization; Western blot without DTT of GFP-MG53 mutants from C2C12 cells
Text: These mutant constructs were transiently expressed in C2C12 myoblast cells (FIG. 22).

Row | Molecule | auto-ubiquitination in vitro (high molecular-mass ladders, anti-MBP immunoblot) [1] | auto-ubiquitination in vitro (high molecular-mass ladders, anti-MBP immunoblot) [2] | binding result [3]
1 | MBP-MG53 (recombinant maltose-binding protein fusion protein for MG53) | High molecular-mass ladders derived from ubiquitination were observed when MBP-MG53 was incubated with Ubc4 or UbCH5 as E2 | High molecular-mass ladders derived from ubiquitination were observed when MBP-MG53 was incubated with Ubc4 or UbCH5 as E2 | 
2 | B1 |  |  | no binding
